In US20030113787A1 (Takeda / Millennium, published 2003):

T1: Bcl-10-CARD/AD (mouse, UniProt Q04207 364-549; O95999 1-104)
T1 sequence (looked up): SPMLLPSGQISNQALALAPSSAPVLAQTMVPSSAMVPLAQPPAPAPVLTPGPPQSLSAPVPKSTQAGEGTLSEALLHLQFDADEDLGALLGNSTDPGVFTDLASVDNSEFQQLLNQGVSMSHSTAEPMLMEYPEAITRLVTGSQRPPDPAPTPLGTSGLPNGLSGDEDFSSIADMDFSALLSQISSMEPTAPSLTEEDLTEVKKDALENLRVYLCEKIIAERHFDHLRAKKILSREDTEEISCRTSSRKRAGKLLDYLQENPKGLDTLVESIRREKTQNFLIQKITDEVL

B1: Bcl-10-CARD/BD (other, UniProt P04386 1-147, looked up)
chain: MKLLSSIEQACDICRLKKLKCSKEKPKCAKCLKNNWECRYSPKTKRSPLTRAHLTEVESRLERLEQLFLLIFPREDLDMILKMDSLQDIKALLTGLFVQDNVNKDAVTDRLASVETDMPLTLRQHRISATSSSEESSNKGQRQLTVSMEPTAPSLTEEDLTEVKKDALENLRVYLCEKIIAERHFDHLRAKKILSREDTEEISCRTSSRKRAGKLLDYLQENPKGLDTLVESIRREKTQNFLIQKITDEVL
notes: range 1-147;range 1-104; Two-hybrid construct in pCMV-BD; also called CARD of Bcl-10; CARD of Bcl10
B2: CARD-11-CARD fused to the NF-kB activation domain (pCMV-CARD-11/AD) (other, mouse)
chain: SPMLLPSGQISNQALALAPSSAPVLAQTMVPSSAMVPLAQPPAPAPVLTPGPPQSLSAPVPKSTQAGEGTLSEALLHLQFDADEDLGALLGNSTDPGVFTDLASVDNSEFQQLLNQGVSMSHSTAEPMLMEYPEAITRLVTGSQRPPDPAPTPLGTSGLPNGLSGDEDFSSIADMDFSALLSQISSEEDALWENVECNRHMLSRYINPAKLTPYLRQCKVIDEQDEDEVLNAPMLPSKINRAGRLLDILHTKGQRGYVVFLESLEFYYPELYKLVTGKE
B3: CARD-9-CARD/AD (other, mouse)
chain: SPMLLPSGQISNQALALAPSSAPVLAQTMVPSSAMVPLAQPPAPAPVLTPGPPQSLSAPVPKSTQAGEGTLSEALLHLQFDADEDLGALLGNSTDPGVFTDLASVDNSEFQQLLNQGVSMSHSTAEPMLMEYPEAITRLVTGSQRPPDPAPTPLGTSGLPNGLSGDEDFSSIADMDFSALLSQISSMSDYENDDECWNVLEGFRVTLTSVIDPSRITPYLRQCKVLNPDDEEQVLSDPNLVIRKRKVGVLLDILQRTGHKGYVAFLESLELYYPQLYKKVTGKEPARVFSMIIDAS

Tests used:
[1] = biological target: Bcl-10 dominant negative deletion mutant (amino acids 1-104) (UniProt O95999); assay: cell-based or functional assay
[2] = biological target: B3; assay: mammalian two-hybrid, 293T cells
Procedure: (§1) For the additional mammalian two-hybrid assays, 293T cells in 6-well plates (35-mm wells) were transfected with the following plasmids: 750 ng of pCMV-CARD-9/AD, 750 ng of pCMV-CARD/BD, 250 ng of pFR-Luc firefly reporter (Stratagene), and 250 ng of pRL-TK renilla reporter (Promega). For NF-?B assays, 293T cells were transfected with the following plasmids: 900 ng of pNF-kB luciferase reporter (Stratagene), 100 ng of pRL-TK renilla reporter (Promega) and 1000 ng of indicated expression plasmids. Cells were harvested 24 h after transfection, and firefly luciferase activity was determined using the Dual-Luciferase Reporter Assay System (Promega). In addition, renilla luciferase activity was determined and used to normalize transfection efficiencies.
(§2) To identify the binding partners of CARD-11, a mammalian two-hybrid analysis was performed using the CARD domains of 15 known proteins. For mammalian two-hybrid assays, 293T cells in 6-well plates (35-mm wells) were transfected with the following plasmids: 750 ng of pCMV-CARD-11/AD, 750 ng of pCMV-BD fused to individual CARD domains, 250 ng of pFR-Luc firefly reporter (Stratagene), and 250 ng of pRL-TK renilla reporter (Promega). pCMV-CARD-11 /AD and pCMV-CARD/BD plasmids were constructed by inserting individual CARD domains into pCMV-CARD/AD and pCMV-BD, respectively (Stratagene): Bcl-10 (residues 1-104), ARC (residues 1-110), RICK (residues 417-540), CARD-4 (residues 1-1 19), ASC (residues 92-195), caspase-I (residues 1-110), caspase-2 (residues 1-122), caspase-4 (residues 1-108), caspase-9 (residues 1-111), caspase-11 (residues 1-122), caspase-12 (residues 1-121), IAP-1 (residues 423-543), IAP-2 (residues 450-557), Apaf-1 (residues 1-108) and RAIDD (residues 1 -108). Cells were harvested 24 hours after transfection, and firefly luciferase activity was determined using the Dual-Luciferase Reporter Assay System (Promega). In addition, renilla luciferase activity was determined and used to normalize transfection efficiencies.

[3] = biological target: B2; assay: mammalian two-hybrid, 293T cells
Procedure: as §1, §2

[4] = biological target: T1, Bcl-10-CARD/AD; assay: cell-based or functional assay
[5] = biological target: B1; assay: cell-based or functional assay

| Molecule | binding result [2] | binding result [3] | other results |
| --- | --- | --- | --- |
| human CARD-11 (from UniProt Q9BXL7 8-1154) | – | – | NF-κB activity (luciferase reporter) left with dominant negative Bcl-10 (times above background) [1]: 1.7; NF-κB activity (luciferase reporter), reduction by dominant negative Bcl-10 [1]: 4 fold |
| human CARD-10 (from UniProt Q9BWT7 1-1032) | – | – | NF-κB activity (luciferase reporter) left with dominant negative Bcl-10 (times above background) [1]: 10; NF-κB activity (luciferase reporter), reduction by dominant negative Bcl-10 [1]: 35 fold |
| ARC CARD domain (residues 1-110) in pCMV-BD (other, UniProt P04386 1-147, looked up, range 1-147;range 1-110; Member of the two-hybrid CARD panel) MKLLSSIEQACDICRLKKLKCSKEKPKCAKCLKNNWECRYSPKTKRSPLTRAHLTEVESRLERLEQLFLLIFPREDLDMILKMDSLQDIKALLTGLFVQDNVNKDAVTDRLASVETDMPLTLRQHRISATSSSEESSNKGQRQLTVSMGNAQERPSETIDRERKRLVETLQADSGLLLDALLARGVLTGPEYEALDALPDAERRVRRLLLLVQGKGEAACQELLRCAQRTAGAPDPAWDWQHVGPGYRDRSYDPPCP | no binding | no binding | – |
| CARD-4 CARD domain (residues 1-119) in pCMV-BD (other, UniProt P04386 1-147, looked up, range 1-147;range 1-119; Member of the two-hybrid CARD panel) MKLLSSIEQACDICRLKKLKCSKEKPKCAKCLKNNWECRYSPKTKRSPLTRAHLTEVESRLERLEQLFLLIFPREDLDMILKMDSLQDIKALLTGLFVQDNVNKDAVTDRLASVETDMPLTLRQHRISATSSSEESSNKGQRQLTVSMEEQGHSEMEIIPSESHPHIQLLKSNRELLVTHIRNTQCLVDNLLKNDYFSAEDAEIVCACPTQPDKVRKILDLVQSKGEEVSEFFLYLLQQLADAYVDLRPWLLEIGFSPSLLTQSKV | no binding | no binding | – |
| CARD-9-CARD/BD (other, yeast) MKLLSSIEQACDICRLKKLKCSKEKPKCAKCLKNNWECRYSPKTKRSPLTRAHLTEVESRLERLEQLFLLIFPREDLDMILKMDSLQDIKALLTGLFVQDNVNKDAVTDRLASVETDMPLTLRQHRISATSSSEESSNKGQRQLTVSMSDYENDDECWNVLEGFRVTLTSVIDPSRITPYLRQCKVLNPDDEEQVLSDPNLVIRKRKVGVLLDILQRTGHKGYVAFLESLELYYPQLYKKVTGKEPARVFSMIIDAS | – | – | luciferase activity (mammalian two-hybrid reporter) [4]: 75 fold |
| ASC CARD domain (residues 92-195) in pCMV-BD (other, UniProt P04386 1-147, looked up, range 1-147;range 92-195; Member of the two-hybrid CARD panel) MKLLSSIEQACDICRLKKLKCSKEKPKCAKCLKNNWECRYSPKTKRSPLTRAHLTEVESRLERLEQLFLLIFPREDLDMILKMDSLQDIKALLTGLFVQDNVNKDAVTDRLASVETDMPLTLRQHRISATSSSEESSNKGQRQLTVSGSGAAPAGIQAPPQSAAKPGLHFIDQHRAALIARVTNVEWLLDALYGKVLTDEQYQAVRAEPTNPSKMRKLFSFTPAWNWTCKDLLLQALRESQSYLVEDLERS | no binding | no binding | – |
| RAIDD CARD domain (residues 1-108) in pCMV-BD (other, UniProt P04386 1-147, looked up, range 1-147;range 1-108; Member of the two-hybrid CARD panel) MKLLSSIEQACDICRLKKLKCSKEKPKCAKCLKNNWECRYSPKTKRSPLTRAHLTEVESRLERLEQLFLLIFPREDLDMILKMDSLQDIKALLTGLFVQDNVNKDAVTDRLASVETDMPLTLRQHRISATSSSEESSNKGQRQLTVSMEARDKQVLRSLRLELGAEVLVEGLVLQYLYQEGILTENHIQEINAQTTGLRKTMLLLDILPSRGPKAFDTFLDSLQEFPWVREKLKKAREEAMTDLPAGDRLTGIPS | no binding | no binding | – |
| B1 | binds | – | – |
| B2 | – | – | relative luciferase activity (mammalian two-hybrid reporter) [5]: 17 fold |
| RICK CARD domain (residues 417-540) in pCMV-BD (other, UniProt P04386 1-147, looked up, range 1-147;range 417-540; Member of the two-hybrid CARD panel) MKLLSSIEQACDICRLKKLKCSKEKPKCAKCLKNNWECRYSPKTKRSPLTRAHLTEVESRLERLEQLFLLIFPREDLDMILKMDSLQDIKALLTGLFVQDNVNKDAVTDRLASVETDMPLTLRQHRISATSSSEESSNKGQRQLTVSAIINPLSTAGNSERLQPGIAQQWIQSKREDIVNQMTEACLNQSLDALLSRDLIMKEDYELVSTKPTRTSKVRQLLDTTDIQGEEFAKVIVQKLKDNKQMGLQPYPEILVVSRSPSLNLLQNKSM | no binding | no binding | – |
| B3 | – | – | relative luciferase activity (mammalian two-hybrid reporter) [5]: 250 fold |
| caspase-12 CARD domain (residues 1-121) in pCMV-BD (other, UniProt P04386 1-147, looked up, range 1-147;range 1-121; Member of the two-hybrid CARD panel) MKLLSSIEQACDICRLKKLKCSKEKPKCAKCLKNNWECRYSPKTKRSPLTRAHLTEVESRLERLEQLFLLIFPREDLDMILKMDSLQDIKALLTGLFVQDNVNKDAVTDRLASVETDMPLTLRQHRISATSSSEESSNKGQRQLTVSMAARRTHERDPIYKIKGLAKDMLDGVFDDLVEKNVLNGDELLKIGESASFILNKAENLVENFLEKTDMAGKIFAGHIANSQEQLSLQFSNDEDDGPQKICTPSSPSESKRKVEDDEMEVNA | no binding | no binding | – |
| Apaf-1 CARD domain (residues 1-108) in pCMV-BD (other, UniProt P04386 1-147, looked up, range 1-147;range 1-108; Member of the two-hybrid CARD panel) MKLLSSIEQACDICRLKKLKCSKEKPKCAKCLKNNWECRYSPKTKRSPLTRAHLTEVESRLERLEQLFLLIFPREDLDMILKMDSLQDIKALLTGLFVQDNVNKDAVTDRLASVETDMPLTLRQHRISATSSSEESSNKGQRQLTVSMDAKARNCLLQHREALEKDIKTSYIMDHMISDGFLTISEEEKVRNEPTQQQRAAMLIKMILKKDNDSYVSFYNALLHEGYKDLAALLHDGIPVVSSSSGKDSVSGITS | no binding | no binding | – |
